T1: human EpCAM antigen on Kato III cells or human EpCAM transfected CHO cells (human, UniProt P16422 24-265)
T1 construct: 137 holds only the extracellular portion; the protein stood whole on cells
T1 sequence: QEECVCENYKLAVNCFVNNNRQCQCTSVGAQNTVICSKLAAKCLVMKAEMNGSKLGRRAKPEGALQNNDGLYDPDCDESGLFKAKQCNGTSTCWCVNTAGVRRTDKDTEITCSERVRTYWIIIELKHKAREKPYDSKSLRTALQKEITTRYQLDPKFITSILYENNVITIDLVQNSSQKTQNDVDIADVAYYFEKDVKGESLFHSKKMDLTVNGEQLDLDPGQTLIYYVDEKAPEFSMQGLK

T2: cynomolgus EpCAM antigen on transfected CHO cells (cynomolgus, UniProt Q1WER1 24-265 (rhesus entry))
T2 construct: 48 holds the extracellular portion
T2 sequence: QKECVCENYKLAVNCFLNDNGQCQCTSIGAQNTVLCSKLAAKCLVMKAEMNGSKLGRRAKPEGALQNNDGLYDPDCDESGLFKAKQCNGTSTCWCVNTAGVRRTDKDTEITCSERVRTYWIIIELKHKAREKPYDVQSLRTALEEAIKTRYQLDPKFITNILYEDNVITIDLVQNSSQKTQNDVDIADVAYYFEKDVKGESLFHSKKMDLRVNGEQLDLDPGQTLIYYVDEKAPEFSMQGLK


How the values were obtained:
human EGFR on A431 cells = biological target: T3, human EGFR on A431 cells (human, UniProt P00533 25-1210); test: FACS, A431 cells, 1 µg/ml purified protein, anti-His detection
T3 construct: whole, on cells
Method: In order to test the functionality of the cross-species specific bispecific antibody constructs with regard to binding capability to human and cynomolgus EGFR and CD3, respectively, a FACS analysis was performed. For this purpose the EGFR positive epidermoid carcinoma A431 cells (ATCC, CRL-1555) and CD3 positive human T cell leukemia cell line HPB-ALL (DSMZ, Braunschweig, ACC483) were used to check the binding to human antigens. The binding reactivity to cynomolgus antigens was tested by using the generated cynomolgus EGFR transfectants described in Example 20 and cynomolgus PBMCs which were obtained by Ficoll density gradient centrifugation. 200,000 cells of the respective cell population were incubated for 30 min on ice with 50 μl of the purified protein of the cross-species specific bispecific antibody constructs (1 μg/ml). The cells were washed twice in PBS and binding of the construct was detected with an unlabeled murine Penta His antibody (diluted 1:20 in 50 μl PBS with 2% FCS; Qiagen; Order No. 34660). After washing, bound anti His antibodies were detected with an Fc gamma-specific antibody (Dianova) conjugated to phycoerythrin, diluted 1:100 in 50 μl PBS with 2% FCS. Fresh culture medium was used as a negative control.
Cells were analyzed by flow cytometry on a FACS-Calibur apparatus (Becton Dickinson, Heidelberg). FACS staining and measuring of the fluorescence intensity were performed as described in Current Protocols in Immunology (Coligan, Kruisbeek, Margulies, Shevach and Strober, Wiley-Interscience, 2002).

[1] = biological target: T1, human EpCAM antigen on Kato III cells …; test: FACS, Kato III cells (FIG. 8A), anti-His detection
Excerpt: (§1) FIG. 8: FACS assay for binding of 2G8LH×SEQ ID NO. 12, 2G8LH×SEQ ID NO. 10, 2G8LH×SEQ ID NO. 16, 2G8LH×SEQ ID NO. 14, 2G8HL×SEQ ID NO. 12, 2G8HL×SEQ ID NO. 10, 2G8HL×SEQ ID NO. 16 and 2G8HL×SEQ ID NO. 14 on Kato III (FIG. 8A) cells or cynomolgus EpCAM transfected CHO cells (FIG. 8B) and HPB-ALL cells. Antigen binding was clearly detectable for the anti EpCAM specificities as well as for the anti CD3 specificities. As a negative control for binding to cynomolgus EpCAM, the 5-10LH×SEQ ID NO.
(§2) Binding of the bifunctional constructs from cell culture supernatants or binding of purified bifunctional constructs to the human EpCAM antigen on Kato III cells or cynomolgus EpCAM transfected CHO cells and to the CD3 antigen on HPB-ALL cells was tested using an FACS assay. For that purpose 2.5×10⁵ cells were incubated with 50 μl supernatant or with 5 μg/ml of the purified constructs in 50 μl PBS with 2% FCS. The binding of the constructs was detected with an anti-His antibody (Penta-His Antibody, BSA free, obtained from Qiagen GmbH, Hilden, FRG) at 2 μg/ml in 50 μl PBS with 2% FCS. […] The samples were measured on a FACSscan (BD biosciences, Heidelberg, FRG). Antigen binding was clearly detectable for the anti EpCAM specificities as well as for the anti CD3 specificities (see FIG. 8). As a negative control for binding to cynomolgus EpCAM, the 5-10LH×SEQ ID NO. […] The 5-10LH part only binds to human EpCAM.

[2] = biological target: T2, cynomolgus EpCAM antigen on transfected …; test: FACS, cynomolgus EpCAM transfected CHO cells (FIG. 8B), anti-His detection
Excerpt: as §1, §2

Row | Binder | binding result (human EGFR on A431 cells) | binding result [1] | binding result [2]
1 | SEQ ID NO. 170 × EGFR LH (bispecific antibody, 184 as EGFR LH; the appendix heads it EGFR HL; ends with HHHHHH and *VD in the appendix) EVQLVESGGGLVQPGGSLKLSCAASGFTFNTYAMNWVRQAPGKGLEWVARIRSKYNNYATYYADSVKDRFTISRDDSKNTAYLQMNNLKTEDTAVYYCVRHGNFGNSYVSWFAYWGQGTLVTVSSGGGGSGGGGSGGGGSQTVVTQEPSLTVSPGGTVTLTCRSSTGAVTTSNYANWVQQKPGQAPRGLIGGTNKRAPGTPARFSGSLLGGKAALTLSGVQPEDEAEYYCALWYSNLWVFGGGTKLTVLSGGGGSDIVLTQSPASLPVSLGQRATISCRASQSVSSSTYSYIHWYQQKPGQPPKLLITYASNLESGVPARFSGSGSGTDFTLDIHPVEEDDSSTYYCQHSWEIPFTFGSGTKLEIKGGGGSGGGGSGGGGSQVQLQQSGPDLVKPGASVKMSCKASGHTFTDCVIIWVKQRAGQGLEWIGQIYPGTGRSYYNEIFKGKATLTADKSSNTVHIQLSSLTSEDSAVYFCALSTLIHGTWFSYWGQGTLVTVSSHHHHHH | binds | – | –
2 | SEQ ID NO. 194 × EGFR HL (bispecific antibody, the appendix prints the entry with HHHHHH and then *VD at its end) QTVVTQEPSLTVSPGGTVTLTCRSSTGAVTTSNYANWVQQKPGQAPRGLIGGTNKRAPGTPARFSGSLLGGKAALTLSGVQPEDEAEYYCALWYSNLWVFGGGTKLTVLGGGGSGGGGSGGGGSEVQLVESGGGLVQPGGSLKLSCAASGFTFNTYAMNWVRQAPGKGLEWVARIRSKYNNYATYYADSVKDRFTISRDDSKNTAYLQMNNLKTEDTAVYYCVRHGNFGNSYVSWFAYWGQGTLVTVSSSGGGGSQVQLQQSGPDLVKPGASVKMSCKASGHTFTDCVIIWVKQRAGQGLEWIGQIYPGTGRSYYNEIFKGKATLTADKSSNTVHIQLSSLTSEDSAVYFCALSTLIHGTWFSYWGQGTLVTVSSGGGGSGGGGSGGGGSDIVLTQSPASLPVSLGQRATISCRASQSVSSSTYSYIHWYQQKPGQPPKLLITYASNLESGVPARFSGSGSGTDFTLDIHPVEEDDSSTYYCQHSWEIPFTFGSGTKLEIKHHHHHH | binds | – | –
3 | SEQ ID NO. 170 × EGFR HL (bispecific antibody, the appendix prints the entry with HHHHHH and then *VD at its end) EVQLVESGGGLVQPGGSLKLSCAASGFTFNTYAMNWVRQAPGKGLEWVARIRSKYNNYATYYADSVKDRFTISRDDSKNTAYLQMNNLKTEDTAVYYCVRHGNFGNSYVSWFAYWGQGTLVTVSSGGGGSGGGGSGGGGSQTVVTQEPSLTVSPGGTVTLTCRSSTGAVTTSNYANWVQQKPGQAPRGLIGGTNKRAPGTPARFSGSLLGGKAALTLSGVQPEDEAEYYCALWYSNLWVFGGGTKLTVLSGGGGSQVQLQQSGPDLVKPGASVKMSCKASGHTFTDCVIIWVKQRAGQGLEWIGQIYPGTGRSYYNEIFKGKATLTADKSSNTVHIQLSSLTSEDSAVYFCALSTLIHGTWFSYWGQGTLVTVSSGGGGSGGGGSGGGGSDIVLTQSPASLPVSLGQRATISCRASQSVSSSTYSYIHWYQQKPGQPPKLLITYASNLESGVPARFSGSGSGTDFTLDIHPVEEDDSSTYYCQHSWEIPFTFGSGTKLEIKHHHHHH | binds | – | –

The next lines start with the values.

Row | binding result (human EGFR on A431 cells) | binding result [1] | binding result [2] | Binder
4 | – | binds | binds | 2G8LH×SEQ ID NO. 16 bispecific single chain antibody (bispecific antibody) DVVMTQTPLTLSVTIGQPASISCKSSQSLLYSNGKTYLNWILQRPGQSPKRLIYLVSKLDSGVPDRFTGSGSGTDFTLKISRVEAEDLGVYYCVQGTHFPLTFGAGTKLELKGGGGSGGGGSGGGGSEVQLQQSGAELVRSGASVKLSCTASGFNIKDYYLHWVKQRPEQGLEWIAWIDLENGDIKYAPKFQGKATITADTSSNTAYLQLSSLTSEDTAVYYCNPYYYGSNYDYAMDYWGQGTSVTVSSGGGGSQVVLTQSPAIMSAFPGEKVTMTCSASSSVSYMNWYQQKSGTSPKRWIYDSSKLASGVPARFSGSGSGTSYSLTISSMETEDAATYYCQQWSRNPPTFGGGTKLQITGGGGSGGGGSGGGGSQVQLQQSGAELARPGASVKMSCKASGYTFTRSTMHWVKQRPGQGLEWIGYINPSSAYTNYNQKFKDKATLTADKSSSTAYMQLSSLTSEDSAVYYCASPQVHYDYNGFPYWGQGTLVTVSAHHHHHH
5 | – | binds | binds | 2G8LH×SEQ ID NO. 12 bispecific single chain antibody (bispecific antibody) DVVMTQTPLTLSVTIGQPASISCKSSQSLLYSNGKTYLNWILQRPGQSPKRLIYLVSKLDSGVPDRFTGSGSGTDFTLKISRVEAEDLGVYYCVQGTHFPLTFGAGTKLELKGGGGSGGGGSGGGGSEVQLQQSGAELVRSGASVKLSCTASGFNIKDYYLHWVKQRPEQGLEWIAWIDLENGDIKYAPKFQGKATITADTSSNTAYLQLSSLTSEDTAVYYCNPYYYGSNYDYAMDYWGQGTSVTVSSGGGGSQAVVTQESALTTSPGETVTLTCRSSTGAVTTSNYANWVQEKPDHLFTGLIGGTNKRAPGVPARFSGSLIGDKAALTITGAQTEDEAIYFCALWYSNLWVFGGGTKLTVLGGGGSGGGGSGGGGSEVKLLESGGGLVQPKGSLKLSCAASGFTFNTYAMNWVRQAPGKGLEWVARIRSKYNNYATYYADSVKDRFTISRDDSQSILYLQMNNLKTEDTAMYYCVRHGNFGNSYVSWFAYWGQGTLVTVSAHHHHHH
6 | binds | – | – | SEQ ID NO. 194 × EGFR LH (bispecific antibody, 186 as EGFR LH; the appendix heads it EGFR HL; ends with HHHHHH and *VD in the appendix) QTVVTQEPSLTVSPGGTVTLTCRSSTGAVTTSNYANWVQQKPGQAPRGLIGGTNKRAPGTPARFSGSLLGGKAALTLSGVQPEDEAEYYCALWYSNLWVFGGGTKLTVLGGGGSGGGGSGGGGSEVQLVESGGGLVQPGGSLKLSCAASGFTFNTYAMNWVRQAPGKGLEWVARIRSKYNNYATYYADSVKDRFTISRDDSKNTAYLQMNNLKTEDTAVYYCVRHGNFGNSYVSWFAYWGQGTLVTVSSSGGGGSDIVLTQSPASLPVSLGQRATISCRASQSVSSSTYSYIHWYQQKPGQPPKLLITYASNLESGVPARFSGSGSGTDFTLDIHPVEEDDSSTYYCQHSWEIPFTFGSGTKLEIKGGGGSGGGGSGGGGSQVQLQQSGPDLVKPGASVKMSCKASGHTFTDCVIIWVKQRAGQGLEWIGQIYPGTGRSYYNEIFKGKATLTADKSSNTVHIQLSSLTSEDSAVYFCALSTLIHGTWFSYWGQGTLVTVSSHHHHHH
7 | – | binds | binds | 2G8LH×SEQ ID NO. 14 bispecific single chain antibody (bispecific antibody) DVVMTQTPLTLSVTIGQPASISCKSSQSLLYSNGKTYLNWILQRPGQSPKRLIYLVSKLDSGVPDRFTGSGSGTDFTLKISRVEAEDLGVYYCVQGTHFPLTFGAGTKLELKGGGGSGGGGSGGGGSEVQLQQSGAELVRSGASVKLSCTASGFNIKDYYLHWVKQRPEQGLEWIAWIDLENGDIKYAPKFQGKATITADTSSNTAYLQLSSLTSEDTAVYYCNPYYYGSNYDYAMDYWGQGTSVTVSSGGGGSQVQLQQSGAELARPGASVKMSCKASGYTFTRSTMHWVKQRPGQGLEWIGYINPSSAYTNYNQKFKDKATLTADKSSSTAYMQLSSLTSEDSAVYYCASPQVHYDYNGFPYWGQGTLVTVSAGGGGSGGGGSGGGGSQVVLTQSPAIMSAFPGEKVTMTCSASSSVSYMNWYQQKSGTSPKRWIYDSSKLASGVPARFSGSGSGTSYSLTISSMETEDAATYYCQQWSRNPPTFGGGTKLQITHHHHHH

Source: US20090252683A1 (Amgen, published 2009)
